Laboratory results published in the supplement of paper PMC10567573.

B1: ANKRD40 (parent)
chain: VCCCELGVNPDQVEKIRKLPNTLL

Variants of: B1
Test: protein stability index of a GFP-peptide fusion (GPS, HEK-293T) (PSI 1-6); higher = more stable
Conditions: c terminus: a fixed tail appended
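Further: lentivirally expressed fusions sorted by FACS into six bins by GFP to DsRed ratio, PSI derived from sequencing read proportions per bin multiplied by bin number.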

Point of comparison: VCCCELGVMPDQVEKIRKLPNTLL, protein stability index 2.23. Against it:
- VCCCELGVKPDQVEKIRKLPNTLL — higher, 2.33
- VCCCELGVIPDQVEKIRKLPNTLL — lower, 1.88
- VCCCELGVPPDQVEKIRKLPNTLL — lower, 2
- VCCCELGVQPDQVEKIRKLPNTLL — lower, 1.62
- VCCCELGVLPDQVEKIRKLPNTLL — lower, 1.97
- VCCCELGVVPDQVEKIRKLPNTLL — lower, 1.75
- VCCCELGVYPDQVEKIRKLPNTLL — lower, 1.78
- VCCCELGVDPDQVEKIRKLPNTLL — lower, 2.01
- VCCCELGVHPDQVEKIRKLPNTLL — lower, 1.83
- VCCCELGVWPDQVEKIRKLPNTLL — higher, 2.8
- VCCCELGVGPDQVEKIRKLPNTLL — lower, 1.96
- VCCCELGVRPDQVEKIRKLPNTLL — lower, 1.92
- VCCCELGVAPDQVEKIRKLPNTLL — lower, 1.47
- VCCCELGVCPDQVEKIRKLPNTLL — lower, 1.66
- VCCCELGVSPDQVEKIRKLPNTLL — higher, 2.3
- VCCCELGVTPDQVEKIRKLPNTLL — lower, 1.68
- VCCCELGVEPDQVEKIRKLPNTLL — lower, 1.7
- VCCKELGVNPDQVEKIRKLPNTLL — lower, 2.22
- VCCIELGVNPDQVEKIRKLPNTLL — higher, 2.28
- VCCFELGVNPDQVEKIRKLPNTLL — lower, 1.83
- VCCWELGVNPDQVEKIRKLPNTLL — lower, 1.98
- VCCDELGVNPDQVEKIRKLPNTLL — higher, 3.17
- VCCEELGVNPDQVEKIRKLPNTLL — higher, 3
- VCCGELGVNPDQVEKIRKLPNTLL — lower, 2.12
- VCCHELGVNPDQVEKIRKLPNTLL — higher, 2.27
- VCCSELGVNPDQVEKIRKLPNTLL — higher, 2.84
- VCCRELGVNPDQVEKIRKLPNTLL — higher, 2.43
- VCCLELGVNPDQVEKIRKLPNTLL — lower, 1.73
- VCCYELGVNPDQVEKIRKLPNTLL — lower, 1.85
- VCCAELGVNPDQVEKIRKLPNTLL — lower, 1.87
- VCCQELGVNPDQVEKIRKLPNTLL — higher, 2.72
- VCCTELGVNPDQVEKIRKLPNTLL — higher, 2.76
- VCCVELGVNPDQVEKIRKLPNTLL — higher, 2.74
- VCCMELGVNPDQVEKIRKLPNTLL — lower, 2.16
- VCCNELGVNPDQVEKIRKLPNTLL — higher, 2.41
- VCCCELGVNPDSVEKIRKLPNTLL — higher, 2.3
- VCCCELGVNPDVVEKIRKLPNTLL — higher, 2.24
- VCCCELGVNPDRVEKIRKLPNTLL — lower, 1.67
- VCCCELGVNPDHVEKIRKLPNTLL — lower, 1.42
- VCCCELGVNPDLVEKIRKLPNTLL — higher, 2.52
- VCCCELGVNPDEVEKIRKLPNTLL — lower, 2.16
- VCCCELGVNPDMVEKIRKLPNTLL — lower, 2.03
- VCCCELGVNPDCVEKIRKLPNTLL — lower, 2.06
- VCCCELGVNPDNVEKIRKLPNTLL — lower, 1.75
- VCCCELGVNPDFVEKIRKLPNTLL — lower, 2.14
- VCCCELGVNPDTVEKIRKLPNTLL — lower, 1.76
- VCCCELGVNPDPVEKIRKLPNTLL — lower, 1.86
- VCCCELGVNPDDVEKIRKLPNTLL — higher, 2.29
- VCCCELGVNPDYVEKIRKLPNTLL — lower, 1.21
- VCCCELGVNPDIVEKIRKLPNTLL — higher, 2.38
- VCCCELGVNPDKVEKIRKLPNTLL — lower, 1.76
- VCCCELGVNPDGVEKIRKLPNTLL — lower, 2.07
- VCCCELGVNPDWVEKIRKLPNTLL — higher, 2.29
- VCCCELGVNPDAVEKIRKLPNTLL — lower, 2.09
- VCCCELGVNPDQIEKIRKLPNTLL — lower, 1.75
- VCCCELGVNPDQFEKIRKLPNTLL — lower, 1.4
- VCCCELGVNPDQDEKIRKLPNTLL — higher, 3.11
- VCCCELGVNPDQHEKIRKLPNTLL — lower, 1.77
- VCCCELGVNPDQAEKIRKLPNTLL — lower, 1.71
- VCCCELGVNPDQEEKIRKLPNTLL — higher, 2.78
- VCCCELGVNPDQCEKIRKLPNTLL — lower, 1.91
- VCCCELGVNPDQGEKIRKLPNTLL — higher, 2.5
- VCCCMLGVNPDQVEKIRKLPNTLL — lower, 1.32
- VCCCYLGVNPDQVEKIRKLPNTLL — higher, 2.68
- VCCCFLGVNPDQVEKIRKLPNTLL — higher, 3.32
- VCCCGLGVNPDQVEKIRKLPNTLL — lower, 1.33
- VCCCRLGVNPDQVEKIRKLPNTLL — lower, 1.47
- VCCCQLGVNPDQVEKIRKLPNTLL — lower, 1.71
- VCCCPLGVNPDQVEKIRKLPNTLL — lower, 2.17
- VCCCSLGVNPDQVEKIRKLPNTLL — higher, 2.81
- VCCCNLGVNPDQVEKIRKLPNTLL — lower, 1.97
- VCCCDLGVNPDQVEKIRKLPNTLL — lower, 1.89
- VCCCLLGVNPDQVEKIRKLPNTLL — higher, 2.28
- VCCCKLGVNPDQVEKIRKLPNTLL — lower, 2.22
- VCCCALGVNPDQVEKIRKLPNTLL — lower, 1.84
- VCCCVLGVNPDQVEKIRKLPNTLL — lower, 1.18
- VCCCHLGVNPDQVEKIRKLPNTLL — higher, 2.82
- VCCCCLGVNPDQVEKIRKLPNTLL — lower, 1.1
- VCCCELGVNSDQVEKIRKLPNTLL — lower, 1.89
- VCCCELGVNYDQVEKIRKLPNTLL — lower, 1.31
- VCCCELGVNQDQVEKIRKLPNTLL — lower, 2.02
- VCCCELGVNRDQVEKIRKLPNTLL — higher, 2.35
- VCCCELGVNKDQVEKIRKLPNTLL — lower, 2.02
- VCCCELGVNADQVEKIRKLPNTLL — lower, 2.14
- VCCCELGVNIDQVEKIRKLPNTLL — lower, 1.8
- VCCCELGVNNDQVEKIRKLPNTLL — lower, 2
- VCCCELGVNMDQVEKIRKLPNTLL — lower, 1.55
- VCCCELGVNEDQVEKIRKLPNTLL — lower, 2.11
- VCCCELGVNCDQVEKIRKLPNTLL — lower, 1.94
- VCCCELGVNDDQVEKIRKLPNTLL — lower, 2.2
- VCCCELGVNLDQVEKIRKLPNTLL — lower, 2.17
- VCCCELGVNTDQVEKIRKLPNTLL — lower, 1.98
- VCCCELGVNFDQVEKIRKLPNTLL — the same, 2.23
- VCCCELGVNHDQVEKIRKLPNTLL — lower, 2
- VCCCELGVNVDQVEKIRKLPNTLL — lower, 2.01
- VCCCELGVNGDQVEKIRKLPNTLL — lower, 2.17
- VCCCELGVNWDQVEKIRKLPNTLL — lower, 1.88
- VCCCELAVNPDQVEKIRKLPNTLL — lower, 2.02
- VCCCELHVNPDQVEKIRKLPNTLL — higher, 2.45
- VCCCELSVNPDQVEKIRKLPNTLL — lower, 1.72
- VCCCELLVNPDQVEKIRKLPNTLL — higher, 2.3
- VCCCELIVNPDQVEKIRKLPNTLL — higher, 2.45
- VCCCELQVNPDQVEKIRKLPNTLL — lower, 2.02
- VCCCELWVNPDQVEKIRKLPNTLL — lower, 1.51
- VCCCELYVNPDQVEKIRKLPNTLL — lower, 1.88
- VCCCELNVNPDQVEKIRKLPNTLL — lower, 1.43
- VCCCELMVNPDQVEKIRKLPNTLL — lower, 1.7
- VCCCELCVNPDQVEKIRKLPNTLL — higher, 2.6
- VCCCELEVNPDQVEKIRKLPNTLL — lower, 2.13
- VCCCELKVNPDQVEKIRKLPNTLL — higher, 2.42
- VCCCELPVNPDQVEKIRKLPNTLL — lower, 1.76
- VCCCELDVNPDQVEKIRKLPNTLL — lower, 1.96
- VCCCELTVNPDQVEKIRKLPNTLL — higher, 2.85
- VCCCELFVNPDQVEKIRKLPNTLL — higher, 2.27
- VCCCELRVNPDQVEKIRKLPNTLL — lower, 1.78
- VCCCELGVNPSQVEKIRKLPNTLL — lower, 1.9
- VCCCELGVNPQQVEKIRKLPNTLL — lower, 1.63
- VCCCELGVNPFQVEKIRKLPNTLL — lower, 1.49
- VCCCELGVNPLQVEKIRKLPNTLL — lower, 1.91
- VCCCELGVNPEQVEKIRKLPNTLL — lower, 2.18
- VCCCELGVNPTQVEKIRKLPNTLL — lower, 1.69
- VCCCELGVNPHQVEKIRKLPNTLL — lower, 1.26
- VCCCELGVNPCQVEKIRKLPNTLL — lower, 2.01
- VCCCELGVNPNQVEKIRKLPNTLL — lower, 1.42
- VCCCELGVNPMQVEKIRKLPNTLL — higher, 2.41
- VCCCELGVNPKQVEKIRKLPNTLL — lower, 1.89
- VCCCELGVNPWQVEKIRKLPNTLL — lower, 1.98
- VCCCELGVNPGQVEKIRKLPNTLL — lower, 2.17
- VCCCELGVNPIQVEKIRKLPNTLL — lower, 1.93
- VCCCELGVNPPQVEKIRKLPNTLL — lower, 1.24
- VCCCELGVNPVQVEKIRKLPNTLL — lower, 1.46
- VCCCELGVNPAQVEKIRKLPNTLL — lower, 1.79
- VCCCELGVNPYQVEKIRKLPNTLL — higher, 2.55
- VCCCELGVNPRQVEKIRKLPNTLL — higher, 2.63
- VCNCELGVNPDQVEKIRKLPNTLL — lower, 1.82
- VCWCELGVNPDQVEKIRKLPNTLL — lower, 1.81
- VCTCELGVNPDQVEKIRKLPNTLL — higher, 2.38
- VCICELGVNPDQVEKIRKLPNTLL — lower, 1.69
- VCSCELGVNPDQVEKIRKLPNTLL — lower, 2.09
- VCRCELGVNPDQVEKIRKLPNTLL — lower, 2.1
- VCKCELGVNPDQVEKIRKLPNTLL — the same, 2.23
- VCMCELGVNPDQVEKIRKLPNTLL — higher, 2.29
- VCFCELGVNPDQVEKIRKLPNTLL — lower, 1.24
- VCHCELGVNPDQVEKIRKLPNTLL — lower, 2.18
- VCLCELGVNPDQVEKIRKLPNTLL — lower, 2.03
- VCGCELGVNPDQVEKIRKLPNTLL — lower, 2.19
- VCVCELGVNPDQVEKIRKLPNTLL — higher, 2.53
- VCQCELGVNPDQVEKIRKLPNTLL — lower, 1.96
- VCPCELGVNPDQVEKIRKLPNTLL — lower, 1.97
- VCYCELGVNPDQVEKIRKLPNTLL — higher, 2.27
- VCECELGVNPDQVEKIRKLPNTLL — higher, 2.77
- VCCCENGVNPDQVEKIRKLPNTLL — higher, 2.47
- VCCCERGVNPDQVEKIRKLPNTLL — higher, 2.3
- VCCCEDGVNPDQVEKIRKLPNTLL — higher, 3.28
- VCCCEYGVNPDQVEKIRKLPNTLL — lower, 1.87
- VCCCEWGVNPDQVEKIRKLPNTLL — lower, 1.66
- VCCCETGVNPDQVEKIRKLPNTLL — lower, 2.13
- VCCCEKGVNPDQVEKIRKLPNTLL — higher, 3.1
- VCCCEVGVNPDQVEKIRKLPNTLL — lower, 2.2
- VCCCEQGVNPDQVEKIRKLPNTLL — higher, 3.27
- VCCCEIGVNPDQVEKIRKLPNTLL — lower, 1.8
- VCCCEEGVNPDQVEKIRKLPNTLL — higher, 2.76
- VCCCEHGVNPDQVEKIRKLPNTLL — lower, 2.15
- VCCCEGGVNPDQVEKIRKLPNTLL — higher, 2.87
- VCCCEAGVNPDQVEKIRKLPNTLL — lower, 2
- VCCCEFGVNPDQVEKIRKLPNTLL — lower, 1.4
- VCCCECGVNPDQVEKIRKLPNTLL — lower, 2.06
- VCCCEMGVNPDQVEKIRKLPNTLL — higher, 2.3
- VCCCESGVNPDQVEKIRKLPNTLL — higher, 2.68
- VCCCELGKNPDQVEKIRKLPNTLL — lower, 2.2
- VCCCELGPNPDQVEKIRKLPNTLL — lower, 1.79
- VCCCELGYNPDQVEKIRKLPNTLL — lower, 1.77
- VCCCELGSNPDQVEKIRKLPNTLL — higher, 2.4
- VCCCELGFNPDQVEKIRKLPNTLL — lower, 1.3
- VCCCELGNNPDQVEKIRKLPNTLL — lower, 1.99
- VCCCELGENPDQVEKIRKLPNTLL — higher, 2.39
- VCCCELGDNPDQVEKIRKLPNTLL — higher, 2.37
- VCCCELGQNPDQVEKIRKLPNTLL — lower, 1.85
- VCCCELGTNPDQVEKIRKLPNTLL — lower, 1.62
- VCCCELGRNPDQVEKIRKLPNTLL — lower, 1.81
- VCCCELGCNPDQVEKIRKLPNTLL — lower, 1.86
- VCCCELGHNPDQVEKIRKLPNTLL — lower, 2.17
- VCCCELGWNPDQVEKIRKLPNTLL — lower, 1.58
- VCCCELGINPDQVEKIRKLPNTLL — lower, 1.79
- VCCCELGGNPDQVEKIRKLPNTLL — higher, 2.33
- VCCCELGANPDQVEKIRKLPNTLL — lower, 1.86
- VCCCELGLNPDQVEKIRKLPNTLL — lower, 1.34
